# From patent publication US20200207857A1
# Experiments:
# [1] = molecular target: Recombinant protein Claudin 18.2; assay: ELISA on plate-coated recombinant Claudin 18.2, OD450; Kd table under the graph, no unit in the table, unit from the x axis log[antibody] nM
# [2] = molecular target: Recombinant protein Claudin 18.2; assay: ELISA-based assay on Claudin 18.2, y axis RLU; Kd table under the graph, no unit in the table, unit from the x axis log[antibody] nM
# [3] = molecular target: Recombinant protein Claudin 18.2; assay: as above; remark: listed apart in the source
# [4] = molecular target: Recombinant protein Claudin 18.2; assay: as above; remark: listed apart in the source
# [5] = molecular target: Recombinant protein Claudin 18.2; assay: ELISA on plate-coated recombinant Claudin 18.2, OD450; Kd table under the graph, no unit in the table, unit from the x axis log[antibody] nM; remark: listed apart in the source
# Sequence of Recombinant protein Claudin 18.2 (chain, as listed by the source limits assumed, form in doubt): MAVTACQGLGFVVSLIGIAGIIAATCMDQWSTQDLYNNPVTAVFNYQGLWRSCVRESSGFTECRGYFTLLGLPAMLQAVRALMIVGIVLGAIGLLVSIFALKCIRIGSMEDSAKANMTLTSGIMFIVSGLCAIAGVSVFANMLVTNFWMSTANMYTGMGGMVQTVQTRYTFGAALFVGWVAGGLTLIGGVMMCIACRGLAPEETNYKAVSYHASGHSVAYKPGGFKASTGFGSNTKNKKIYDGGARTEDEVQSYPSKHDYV
binder,measurement,setting,value
"h5C9o Fc mutation (antibody, V domains shown) VH: EVQLVESGGGLVQPGGSLRLSCAVSGYTFSMNWVRQAPGKGLEWVAWINMYTGEPTYADDFKGRFTISRDDSKNTLYLQMNSLRAEDTAVYYCARLYNGNSLDYWGQGTLVTVSS VL: DIQMTQSPSSLSASVGDRVTITCKSSQSLLNSGNQKSYLTWYQQKPGKAPKLLIYWASTLESGVPSRFSGSGSGTDYTLTISSLQPEDFATYYCQNAYSFPFTFGQGTKVEIKR",Kd,[1],0.114 nM
same,Kd,[2],0.162 nM
"h5C9oad (antibody, V domains shown) VH: EVQLVESGGGLVQPGGSLRLSCAVSGYTFSMNWVRQAPGKGLEWVAWINMYTGEPTYADDFKGRFTISRDDSKNTLYLQMNSLRAEDTAVYYCARLYRGNSLDYWGQGTLVTVSS VL: DIQMTQSPSSLSASVGDRVTITCKSSQSLLNSGNQKSYLTWYQQKPGKAPKLLIYWASTLESGVPSRFSGSGSGTDYTLTISSLQPEDFATYYCQNAYYFPFTFGQGTKVEIK",Kd,[3],0.175 nM
"h5C9oak (antibody, human IgG1, kappa, V domains shown) VH: EVQLVESGGGLVQPGGSLRLSCAVSGYTFSMNWVRQAPGKGLEWVAWINMYTGEPTYADDFKGRFTISRDDSKNTLYLQMNSLRAEDTAVYYCARSSRGNGFDYWGQGTLVTVSS VL: DIQMTQSPSSLSASVGDRVTITCKSSQSLLNSGNQKSYLTWYQQKPGKAPKLLIYWASTLESGVPSRFSGSGSGTDYTLTISSLQPEDFATYYCQNAYYFPFTFGQGTKVEIKR",Kd,[3],0.161 nM
"h5C9oaj (antibody, human IgG1, kappa, V domains shown) VH: EVQLVESGGGLVQPGGSLRLSCAVSGYTFSMNWVRQAPGKGLEWVAWINMYTGEPTYADDFKGRFTISRDDSKNTLYLQMNSLRAEDTAVYYCARLARGNSIDYWGQGTLVTVSS VL: DIQMTQSPSSLSASVGDRVTITCKSSQSLLNSGNQKSYLTWYQQKPGKAPKLLIYWASTLESGVPSRFSGSGSGTDYTLTISSLQPEDFATYYCQNAYYFPFTFGQGTKVEIKR",Kd,[3],0.173 nM
"Anti-CLDN 18.2-5C9oai (humanized antibody h5C9oai) (antibody, human IgG1, V domains shown) VH: EVQLVESGGGLVQPGGSLRLSCAVSGYTFSMNWVRQAPGKGLEWVAWINMYTGEPTYADDFKGRFTISRDDSKNTLYLQMNSLRAEDTAVYYCARLARGNSMDYWGQGTLVTVSS VL: DIQMTQSPSSLSASVGDRVTITCKSSQSLLNSGNQKSYLTWYQQKPGKAPKLLIYWASTLESGVPSRFSGSGSGTDYTLTISSLQPEDFATYYCQNAYSFPFTFGQGTKVEIK",Kd,[4],0.196 nM
"h5C9oh (antibody, V domains shown) VH: EVQLVESGGGLVQPGGSLRLSCAVSGYTFSMNWVRQAPGKGLEWVAWINMYTGEPTYADDFKGRFTISRDDSKNTLYLQMNSLRAEDTAVYYCARLYRGNSLDYWGQGTLVTVSS VL: DIQMTQSPSSLSASVGDRVTITCKSSQSLLNSGNQKSYLTWYQQKPGKAPKLLIYWASTLESGVPSRFSGSGSGTDYTLTISSLQPEDFATYYCQNAYEFPFTFGQGTKVEIK",Kd,[5],0.0802 nM
same,Kd,[4],0.201 nM
"h5C9oah (antibody, V domains shown) VH: EVQLVESGGGLVQPGGSLRLSCAVSGYTFSMNWVRQAPGKGLEWVAWINMYTGEPTYADDFKGRFTISRDDSKNTLYLQMNSLRAEDTAVYYCARSSRGNGFDYWGQGTLVTVSS VL: DIQMTQSPSSLSASVGDRVTITCKSSQSLLNSGNQKSYLTWYQQKPGKAPKLLIYWASTLESGVPSRFSGSGSGTDYTLTISSLQPEDFATYYCQNAYSFPFTFGQGTKVEIK",Kd,[4],0.236 nM
"h5C9oj (antibody, V domains shown) VH: EVQLVESGGGLVQPGGSLRLSCAVSGYTFSMNWVRQAPGKGLEWVAWINMYTGEPTYADDFKGRFTISRDDSKNTLYLQMNSLRAEDTAVYYCARLYNGNALDYWGQGTLVTVSS VL: DIQMTQSPSSLSASVGDRVTITCKSSQSLLNSGNQKSYLTWYQQKPGKAPKLLIYWASTLESGVPSRFSGSGSGTDYTLTISSLQPEDFATYYCQNAYFFPFTFGQGTKVEIK",Kd,[5],0.0777 nM
same,Kd,[4],0.276 nM
"Anti-CLDN 18.2-5C9oag (humanized antibody h5C9oag) (antibody, human IgG1, V domains shown) VH: EVQLVESGGGLVQPGGSLRLSCAVSGYTFSMNWVRQAPGKGLEWVAWINMYTGEPTYADDFKGRFTISRDDSKNTLYLQMNSLRAEDTAVYYCARLARGNSIDYWGQGTLVTVSS VL: DIQMTQSPSSLSASVGDRVTITCKSSQSLLNSGNQKSYLTWYQQKPGKAPKLLIYWASTLESGVPSRFSGSGSGTDYTLTISSLQPEDFATYYCQNAYSFPFTFGQGTKVEIK",Kd,[4],0.196 nM
"h5C9oi (antibody, V domains shown) VH: EVQLVESGGGLVQPGGSLRLSCAVSGYTFSMNWVRQAPGKGLEWVAWINMYTGEPTYADDFKGRFTISRDDSKNTLYLQMNSLRAEDTAVYYCARMYNGNSLDYWGQGTLVTVSS VL: DIQMTQSPSSLSASVGDRVTITCKSSQSLLNSGNQKSYLTWYQQKPGKAPKLLIYWASTLESGVPSRFSGSGSGTDYTLTISSLQPEDFATYYCQNSYSFPFTFGQGTKVEIK",Kd,[5],0.0868 nM
same,Kd,[4],0.316 nM
"h5C9oaf (antibody, V domains shown) VH: EVQLVESGGGLVQPGGSLRLSCAVSGYTFSMNWVRQAPGKGLEWVAWINMYTGEPTYADDFKGRFTISRDDSKNTLYLQMNSLRAEDTAVYYCARLFNGNSLDYWGQGTLVTVSS VL: DIQMTQSPSSLSASVGDRVTITCKSSQSLLNSGNQKSYLTWYQQKPGKAPKLLIYWASTLESGVPSRFSGSGSGTDYTLTISSLQPEDFATYYCQNAYYFPFTFGQGTKVEIKR",Kd,[3],0.162 nM
"h5C9oab (antibody, V domains shown) VH: EVQLVESGGGLVQPGGSLRLSCAVSGYTFSMNWVRQAPGKGLEWVAWINMYTGEPTYADDFKGRFTISRDDSKNTLYLQMNSLRAEDTAVYYCARLYNGNSLDYWGQGTLVTVSS VL: DIQMTQSPSSLSASVGDRVTITCKSSQSLLNSGNQKSYLTWYQQKPGKAPKLLIYWASTLESGVPSRFSGSGSGTDYTLTISSLQPEDFATYYCQNAYYFPFTFGQGTKVEIK",Kd,[3],0.164 nM
"h5C9oam (antibody, human IgG1, kappa, V domains shown) VH: EVQLVESGGGLVQPGGSLRLSCAVSGYTFSMNWVRQAPGKGLEWVAWINMYTGEPTYADDFKGRFTISRDDSKNTLYLQMNSLRAEDTAVYYCARLARGNSIDYWGQGTLVTVSS VL: DIQMTQSPSSLSASVGDRVTITCKSSQSLLNSGNQKSYLTWYQQKPGKAPKLLIYWASTLESGVPSRFSGSGSGTDYTLTISSLQPEDFATYYCQNAYFFPFTFGQGTKVEIKR",Kd,[3],0.172 nM
"humanized anti-Claudin 18.2 antibody h5C9oan (antibody, human IgG1, kappa, V domains shown) VH: EVQLVESGGGLVQPGGSLRLSCAVSGYTFSMNWVRQAPGKGLEWVAWINMYTGEPTYADDFKGRFTISRDDSKNTLYLQMNSLRAEDTAVYYCARSSRGNGFDYWGQGTLVTVSS VL: DIQMTQSPSSLSASVGDRVTITCKSSQSLLNSGNQKSYLTWYQQKPGKAPKLLIYWASTLESGVPSRFSGSGSGTDYTLTISSLQPEDFATYYCQNAYFFPFTFGQGTKVEIKR",Kd,[2],0.12 nM
"h5C9oal (antibody, human IgG1, kappa, V domains shown) VH: EVQLVESGGGLVQPGGSLRLSCAVSGYTFSMNWVRQAPGKGLEWVAWINMYTGEPTYADDFKGRFTISRDDSKNTLYLQMNSLRAEDTAVYYCARLARGNSMDYWGQGTLVTVSS VL: DIQMTQSPSSLSASVGDRVTITCKSSQSLLNSGNQKSYLTWYQQKPGKAPKLLIYWASTLESGVPSRFSGSGSGTDYTLTISSLQPEDFATYYCQNAYYFPFTFGQGTKVEIKR",Kd,[3],0.198 nM
